This assay addresses T1, keyhole limpet hemocyanin (multimeric high molecular weight KLH) (Megathura crenulata (keyhole limpet), UniProt Q10583 17-3414; Q10584 20-3421).
T1 construct: also called mcKLH; Multimeric KLH
Nature of the assay: SPR (BIAcore 2000), antibody captured on anti-human IgG Fc surface, multimeric KLH injected; apparent constants.

The source of these data is US20120195879A1 (published 2012).

As usually defined, the koff is the rate constant with which the complex falls apart. The kon is the second-order rate constant of association.

Method: Multimeric high molecular weight keyhole limpet hemocyanin (KLH) was from Pierce (Rockford, Ill.). Anti-human IgG, Fcγ-specific antibody was from Jackson ImmunoResearch Laboratories, Inc. (West Grove, Pa.). BIACore 2000, research grade sensor chip CM5, surfactant P-20 (polyoxyethylenesorbitan), HBS-EP (10 mM HEPES, 0.15M NaCl, 3.4 mM EDTA, 0.005% P-20, pH 7.4), amine coupling reagents, 10 mM acetate, pH 4.5, and 10 mM glycine, pH 1.5 were from BIACore, Inc. (Piscataway, N.J.). Phosphate-buffered saline (PBS, 1×, no calcium chloride, no magnesium chloride) was from Invitrogen (Carlsbad, Calif.). Bovine serum albumin (BSA, fraction V, IgG free) was from Sigma (St. Louis, Mo.).
Anti-KLH antibody wase captured on individual flow cells, followed by injection of either sample buffer or KLH, ranging in concentration from 0.19-100 nM. To prepare dilutions of the multimeric high molecular weight KLH, an average molecular weight of 5,000,000 daltons was used. Following sample buffer or antigen injection, each surface was regenerated by two injections of 10 mM glycine, pH 1.5 to dissociate captured antibody from the immobilized anti-human Fc surfaces. BIAevaluation software was used to determine apparent kinetic parameters for binding of KLH to captured anti-KLH antibodies.

B1: anti-KLH antibody (human IgG1, clone 120.6.1) (antibody, V domains shown)
VH: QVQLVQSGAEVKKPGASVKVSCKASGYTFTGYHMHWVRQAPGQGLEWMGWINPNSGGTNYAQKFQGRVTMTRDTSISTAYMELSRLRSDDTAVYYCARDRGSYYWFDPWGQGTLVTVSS
VL: DIQMTQSPSSLSASVGDRVTITCRASQGIRNDLGWYQQKPGKAPKRLIYAASSLQSGVPSRFSGSGSGTEFTLTISSLQPEDFATYYCLQHNSYPLTFGGGTKVEIK
notes: also called IgG1 (120.6.1); anti-KLH 120.6.1
On to B1, for which the Kd is 0.2 nM, the koff was found to be 2.5e-05 s⁻¹ and the kon stood at 120000 M⁻¹ s⁻¹.
